For assay [1], the target named is T1, Sea2 (S. cerevisiae (endogenous in yeast …, UniProt Q08281 1-1341)).
T1 construct: Sea2, S. cerevisiae, endogenous subunit of the SEAC (SEACAT, core); Native protein of the purified complex; two copies in the SEAC; source: endogenous, yeast cells expressing Sea4-TAP; in lysate and co-purified with Sea4-TAP (IgG Dynabeads, TEV elution)
T1 sequence (looked up): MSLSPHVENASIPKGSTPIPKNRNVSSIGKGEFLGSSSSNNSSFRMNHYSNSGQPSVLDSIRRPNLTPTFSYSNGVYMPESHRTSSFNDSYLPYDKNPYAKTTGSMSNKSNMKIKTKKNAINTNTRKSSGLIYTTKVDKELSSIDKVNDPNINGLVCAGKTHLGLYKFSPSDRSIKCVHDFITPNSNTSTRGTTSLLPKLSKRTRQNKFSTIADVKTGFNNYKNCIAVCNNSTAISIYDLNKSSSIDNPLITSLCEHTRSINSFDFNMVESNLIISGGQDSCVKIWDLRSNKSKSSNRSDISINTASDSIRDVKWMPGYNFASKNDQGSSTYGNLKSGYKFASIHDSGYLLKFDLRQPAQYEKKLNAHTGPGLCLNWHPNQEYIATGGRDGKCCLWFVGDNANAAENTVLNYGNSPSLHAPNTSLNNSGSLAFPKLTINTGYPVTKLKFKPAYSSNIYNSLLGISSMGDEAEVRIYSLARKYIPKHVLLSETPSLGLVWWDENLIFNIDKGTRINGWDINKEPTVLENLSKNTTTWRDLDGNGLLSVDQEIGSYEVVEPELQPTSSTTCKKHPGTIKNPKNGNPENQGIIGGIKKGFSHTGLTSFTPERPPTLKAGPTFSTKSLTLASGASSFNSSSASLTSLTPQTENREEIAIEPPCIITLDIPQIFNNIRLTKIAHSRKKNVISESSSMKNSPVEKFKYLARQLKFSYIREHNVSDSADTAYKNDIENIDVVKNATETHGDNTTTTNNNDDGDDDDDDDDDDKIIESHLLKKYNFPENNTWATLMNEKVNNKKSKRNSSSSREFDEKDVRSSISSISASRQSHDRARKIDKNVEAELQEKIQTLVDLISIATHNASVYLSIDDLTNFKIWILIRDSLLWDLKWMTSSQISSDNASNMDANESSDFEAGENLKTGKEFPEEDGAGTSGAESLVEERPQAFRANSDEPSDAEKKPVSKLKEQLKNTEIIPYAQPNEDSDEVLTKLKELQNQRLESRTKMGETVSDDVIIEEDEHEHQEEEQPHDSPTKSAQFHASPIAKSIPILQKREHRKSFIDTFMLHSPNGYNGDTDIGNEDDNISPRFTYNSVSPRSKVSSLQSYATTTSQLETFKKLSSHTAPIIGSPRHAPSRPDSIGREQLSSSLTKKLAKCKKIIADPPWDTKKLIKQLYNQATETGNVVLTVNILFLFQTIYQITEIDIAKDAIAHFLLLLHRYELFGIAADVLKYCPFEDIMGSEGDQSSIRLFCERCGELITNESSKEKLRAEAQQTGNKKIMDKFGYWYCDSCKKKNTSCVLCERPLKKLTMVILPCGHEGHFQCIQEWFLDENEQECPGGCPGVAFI
Put plainly: cryo-EM structure; endogenous SEAC purified from yeast via Sea4-TAP (IgG Dynabeads, TEV elution in 20 mM HEPES-NaOH pH 7.4, 300 mM NaCl, 2 mM DTT), on graphene-oxide-coated grids. The settings on record: both partners purified.

For assay [2], the target named is T2, Sea3 (S. cerevisiae (endogenous in yeast …, UniProt Q03897 1-1148)).
T2 construct: Sea3, S. cerevisiae, endogenous subunit of the SEAC; Sea3^SIP (Sea3^Nter) lies in the wing, Sea3^SAP (Sea3^Cter) in the core; Native protein of the purified complex; two copies in the SEAC; source: endogenous, yeast cells expressing Sea4-TAP; in lysate and co-purified with Sea4-TAP (IgG Dynabeads, TEV elution)
T2 sequence (looked up): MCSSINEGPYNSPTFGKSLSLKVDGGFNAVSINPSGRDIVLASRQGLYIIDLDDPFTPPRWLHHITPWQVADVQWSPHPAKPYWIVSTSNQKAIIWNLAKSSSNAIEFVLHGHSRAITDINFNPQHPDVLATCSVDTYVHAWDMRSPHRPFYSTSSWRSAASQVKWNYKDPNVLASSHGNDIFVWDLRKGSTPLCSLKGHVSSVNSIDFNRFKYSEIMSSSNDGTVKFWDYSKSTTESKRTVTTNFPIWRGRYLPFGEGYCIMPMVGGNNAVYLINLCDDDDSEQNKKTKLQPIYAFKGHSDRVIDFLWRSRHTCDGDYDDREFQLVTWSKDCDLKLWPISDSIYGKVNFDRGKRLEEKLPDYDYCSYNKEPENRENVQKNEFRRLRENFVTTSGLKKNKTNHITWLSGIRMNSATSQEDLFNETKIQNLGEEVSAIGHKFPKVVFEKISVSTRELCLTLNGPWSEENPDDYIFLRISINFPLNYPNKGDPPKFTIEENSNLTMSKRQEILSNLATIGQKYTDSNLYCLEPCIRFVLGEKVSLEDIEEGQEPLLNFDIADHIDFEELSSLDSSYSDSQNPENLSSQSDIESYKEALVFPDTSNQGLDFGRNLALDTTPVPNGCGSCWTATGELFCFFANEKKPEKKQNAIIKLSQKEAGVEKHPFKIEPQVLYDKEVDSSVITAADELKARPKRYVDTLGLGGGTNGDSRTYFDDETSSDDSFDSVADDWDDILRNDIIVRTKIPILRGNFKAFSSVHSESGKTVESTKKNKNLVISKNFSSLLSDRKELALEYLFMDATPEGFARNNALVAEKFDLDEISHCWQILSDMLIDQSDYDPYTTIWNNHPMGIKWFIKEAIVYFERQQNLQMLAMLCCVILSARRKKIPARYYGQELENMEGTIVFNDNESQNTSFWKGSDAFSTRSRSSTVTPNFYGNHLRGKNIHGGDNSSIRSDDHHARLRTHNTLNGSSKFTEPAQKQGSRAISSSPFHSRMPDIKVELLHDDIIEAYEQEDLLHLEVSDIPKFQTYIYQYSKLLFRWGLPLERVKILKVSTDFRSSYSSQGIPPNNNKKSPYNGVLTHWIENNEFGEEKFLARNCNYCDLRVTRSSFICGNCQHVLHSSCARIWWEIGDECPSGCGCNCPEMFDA
The assay is described as above. The conditions noted are these: both partners purified.

B1: Seh1 (natural protein, UniProt P53011 1-349, looked up)
chain: MQPFDSGHDDLVHDVVYDFYGRHVATCSSDQHIKVFKLDKDTSNWELSDSWRAHDSSIVAIDWASPEYGRIIASASYDKTVKLWEEDPDQEECSGRRWNKLCTLNDSKGSLYSVKFAPAHLGLKLACLGNDGILRLYDALEPSDLRSWTLTSEMKVLSIPPANHLQSDFCLSWCPSRFSPEKLAVSALEQAIIYQRGKDGKLHVAAKLPGHKSLIRSISWAPSIGRWYQLIATGCKDGRIRIFKITEKLSPLASEESLTNSNMFDNSADVDMDAQGRSDSNTEEKAELQSNLQVELLSEHDDHNGEVWSVSWNLTGTILSSAGDDGKVRLWKATYSNEFKCMSVITAQQ
notes: Seh1, S. cerevisiae, endogenous subunit of the SEAC (SEACAT, core); Native protein of the purified complex; six copies in the SEAC; source: endogenous, yeast cells expressing Sea4-TAP; in lysate and co-purified with Sea4-TAP (IgG Dynabeads, TEV elution)
B1: the binding result in assay [1] and in assay [2] was “binds” throughout.

These data come from article PMC9646525, “Cryo-EM structure of the SEA complex” (Nature, 2022).
